# In paper PMC4772974 (EMBO Reports, 2016):
# B1: MBP‐Plk4‐WT (enzyme, UniProt O00444 1-970, looked up)
# chain: MATCIGEKIEDFKVGNLLGKGSFAGVYRAESIHTGLEVAIKMIDKKAMYKAGMVQRVQNEVKIHCQLKHPSILELYNYFEDSNYVYLVLEMCHNGEMNRYLKNRVKPFSENEARHFMHQIITGMLYLHSHGILHRDLTLSNLLLTRNMNIKIADFGLATQLKMPHEKHYTLCGTPNYISPEIATRSAHGLESDVWSLGCMFYTLLIGRPPFDTDTVKNTLNKVVLADYEMPSFLSIEAKDLIHQLLRRNPADRLSLSSVLDHPFMSRNSSTKSKDLGTVEDSIDSGHATISTAITASSSTSISGSLFDKRRLLIGQPLPNKMTVFPKNKSSTDFSSSGDGNSFYTQWGNQETSNSGRGRVIQDAEERPHSRYLRRAYSSDRSGTSNSQSQAKTYTMERCHSAEMLSVSKRSGGGENEERYSPTDNNANIFNFFKEKTSSSSGSFERPDNNQALSNHLCPGKTPFPFADPTPQTETVQQWFGNLQINAHLRKTTEYDSISPNRDFQGHPDLQKDTSKNAWTDTKVKKNSDASDNAHSVKQQNTMKYMTALHSKPEIIQQECVFGSDPLSEQSKTRGMEPPWGYQNRTLRSITSPLVAHRLKPIRQKTKKAVVSILDSEEVCVELVKEYASQEYVKEVLQISSDGNTITIYYPNGGRGFPLADRPPSPTDNISRYSFDNLPEKYWRKYQYASRFVQLVRSKSPKITYFTRYAKCILMENSPGADFEVWFYDGVKIHKTEDFIQVIEKTGKSYTLKSESEVNSLKEEIKMYMDHANEGHRICLALESIISEEERKTRSAPFFPIIIGRKPGSTSSPKALSPPPSVDSNYPTRERASFNRMVMHSAASPTQAPILNPSMVTNEGLGLTTTASGTDISSNSLKDCLPKSAQLLKSVFVKNVGWATQLTSGAVWVQFNDGSQLVVQAGVSSISYTSPNGQTTRYGENEKLPDYIKQKLQCLSSILLMFSNPTPNFH
# How the values were obtained:
# BBS4 = BBS4 (UniProt Q96RK4); experiment: GFP-Trap co-IP, immunoblot; conditions: reference: EGFP-PCM1-WT*; sites S372
# Cep290 = Cep290 (UniProt O15078); experiment: GFP-Trap co-IP, immunoblot; conditions: reference: EGFP-PCM1-WT*; sites S372
# PCM1 = PCM1 (UniProt Q15154); experiment: RFP-Trap co-IP, mCherry-PCM1 with EGFP-PCM1; conditions: reference: mCherry-PCM1-WT* with EGFP-PCM1-WT*; sites S372
# His‐PCM1 (a.a. 1–1,128) = target: T1, His‐PCM1 (a.a. 1–1,128) (human, UniProt Q15154 1-1128); experiment: pull-down; MBP-Plk4 on Dynabeads Protein G coupled with anti-MBP antibody; 8 μg His-PCM1(1128) in 600 μl binding buffer (50 mM Tris-HCl pH 7.5, 200 mM NaCl, 2 mM MgCl2, 0.5 mg/ml BSA, 0.05% NP-40), 4°C, 2 h; Coomassie and anti-His blot; conditions: both partners purified
# T1 sequence (looked up): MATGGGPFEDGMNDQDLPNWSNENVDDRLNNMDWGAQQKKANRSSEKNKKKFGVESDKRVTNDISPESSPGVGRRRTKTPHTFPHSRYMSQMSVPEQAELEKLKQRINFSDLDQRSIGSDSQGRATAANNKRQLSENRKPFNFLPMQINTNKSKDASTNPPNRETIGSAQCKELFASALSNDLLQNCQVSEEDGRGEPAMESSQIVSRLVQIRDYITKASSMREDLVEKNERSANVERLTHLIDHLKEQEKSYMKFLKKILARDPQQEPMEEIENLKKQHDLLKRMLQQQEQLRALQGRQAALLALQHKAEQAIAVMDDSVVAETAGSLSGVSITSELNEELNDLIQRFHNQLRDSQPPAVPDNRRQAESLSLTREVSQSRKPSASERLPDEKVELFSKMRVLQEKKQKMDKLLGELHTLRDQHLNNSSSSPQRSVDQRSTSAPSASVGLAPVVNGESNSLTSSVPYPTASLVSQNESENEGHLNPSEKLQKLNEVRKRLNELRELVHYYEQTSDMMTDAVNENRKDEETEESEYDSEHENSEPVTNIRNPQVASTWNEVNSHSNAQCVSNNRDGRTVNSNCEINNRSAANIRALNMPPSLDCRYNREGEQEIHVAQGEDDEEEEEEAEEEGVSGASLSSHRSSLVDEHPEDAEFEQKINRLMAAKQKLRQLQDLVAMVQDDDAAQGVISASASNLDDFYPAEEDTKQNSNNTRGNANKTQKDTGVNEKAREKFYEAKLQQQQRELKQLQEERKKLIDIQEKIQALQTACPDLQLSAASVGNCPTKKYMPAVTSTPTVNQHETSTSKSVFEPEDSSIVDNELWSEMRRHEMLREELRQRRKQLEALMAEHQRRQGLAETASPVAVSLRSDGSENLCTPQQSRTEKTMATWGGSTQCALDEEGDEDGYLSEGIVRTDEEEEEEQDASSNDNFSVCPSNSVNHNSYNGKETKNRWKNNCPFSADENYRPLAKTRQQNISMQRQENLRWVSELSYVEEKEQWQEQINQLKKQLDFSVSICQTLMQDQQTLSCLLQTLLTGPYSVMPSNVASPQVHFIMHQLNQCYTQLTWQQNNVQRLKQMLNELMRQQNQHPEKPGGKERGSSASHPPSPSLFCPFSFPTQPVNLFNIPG
molecule,measurement,setting,value
PCM1 (from UniProt Q15154) EGFP-PCM1-S372A*,binding against the reference,BBS4,weaker
same,binding against the reference,Cep290,weaker
PCM1 (from UniProt Q15154) mCherry-PCM1-S372A* with EGFP-PCM1-WT*,binding against the reference,PCM1,weaker
B1,binding result,"His‐PCM1 (a.a. 1–1,128)",binds
